Publication PMC10786891, “Massively parallel profiling of RNA-targeting CRISPR-Cas13d”

T1: EsCas13d, nuclease-dead (Eubacterium siraeum, UniProt B0MS50, R295A;H300A;R849A;H854A)
T1 sequence: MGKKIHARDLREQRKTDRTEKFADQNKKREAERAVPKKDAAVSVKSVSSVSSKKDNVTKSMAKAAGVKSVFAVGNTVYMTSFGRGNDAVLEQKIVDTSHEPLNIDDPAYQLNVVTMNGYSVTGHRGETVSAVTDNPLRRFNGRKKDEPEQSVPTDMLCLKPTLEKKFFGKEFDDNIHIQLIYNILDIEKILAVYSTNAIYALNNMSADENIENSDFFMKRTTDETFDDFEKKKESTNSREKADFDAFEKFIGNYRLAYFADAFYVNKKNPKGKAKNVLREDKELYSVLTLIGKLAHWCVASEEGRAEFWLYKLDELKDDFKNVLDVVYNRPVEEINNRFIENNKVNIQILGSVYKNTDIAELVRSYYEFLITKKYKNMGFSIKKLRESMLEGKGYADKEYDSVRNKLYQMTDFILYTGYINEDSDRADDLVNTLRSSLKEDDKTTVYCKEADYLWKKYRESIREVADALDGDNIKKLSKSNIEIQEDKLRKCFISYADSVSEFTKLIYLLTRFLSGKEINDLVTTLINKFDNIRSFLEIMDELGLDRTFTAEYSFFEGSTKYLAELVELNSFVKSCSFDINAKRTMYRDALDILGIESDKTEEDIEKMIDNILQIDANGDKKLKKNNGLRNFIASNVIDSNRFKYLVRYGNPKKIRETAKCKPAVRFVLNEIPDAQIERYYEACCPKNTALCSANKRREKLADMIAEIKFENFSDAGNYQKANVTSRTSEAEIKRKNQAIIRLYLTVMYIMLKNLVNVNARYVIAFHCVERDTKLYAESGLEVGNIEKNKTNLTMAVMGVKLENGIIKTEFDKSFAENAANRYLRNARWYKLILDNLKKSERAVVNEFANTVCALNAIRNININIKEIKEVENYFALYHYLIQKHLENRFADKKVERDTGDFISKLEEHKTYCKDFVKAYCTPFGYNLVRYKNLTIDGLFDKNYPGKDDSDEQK

B1: target 1 complement block 2-11 (mixed)
RNA 1: CACCCGUGCAAAAAUGCAGGGGUCUAAAACUGAGCGGAUAACCUCUCUAUGG
RNA 2: GGGAAUGGAUCCACAUCUACGAAUUCGUACCAUAGAGAGGAAUAGGCGAGACCGAGAUCGGAAGAGCACACGU
B2: target 1 insA 3' of 10,insU 3' of 6 (mixed)
RNA 1: CACCCGUGCAAAAAUGCAGGGGUCUAAAACUGAGCGGAUAACCUCUCUAUGG
RNA 2: GGGAAUGGAUCCACAUCUACGAAUUCGUACCAUAGAGAGGUUAAUCCUGCUCACCGAGAUCGGAAGAGCACACGU
B3: target 1 G5C,U10C (mixed)
RNA 1: CACCCGUGCAAAAAUGCAGGGGUCUAAAACUGAGCGGAUAACCUCUCUAUGG
RNA 2: GGGAAUGGAUCCACAUCUACGAAUUCGUACCAUAGAGAGGUCAUCCCCUCACCGAGAUCGGAAGAGCACACGU
B4: target 1 insA 3' of 6,insU 3' of 5 (mixed)
RNA 1: CACCCGUGCAAAAAUGCAGGGGUCUAAAACUGAGCGGAUAACCUCUCUAUGG
RNA 2: GGGAAUGGAUCCACAUCUACGAAUUCGUACCAUAGAGAGGUUAUCCAGUCUCACCGAGAUCGGAAGAGCACACGU
B5: target 1 U3G,A20C (mixed)
RNA 1: CACCCGUGCAAAAAUGCAGGGGUCUAAAACUGAGCGGAUAACCUCUCUAUGG
RNA 2: GGGAAUGGAUCCACAUCUACGAAUUCGUACCCUAGAGAGGUUAUCCGCGCACCGAGAUCGGAAGAGCACACGU
B6: target 1 G5U,G12U (mixed)
RNA 1: CACCCGUGCAAAAAUGCAGGGGUCUAAAACUGAGCGGAUAACCUCUCUAUGG
RNA 2: GGGAAUGGAUCCACAUCUACGAAUUCGUACCAUAGAGAGUUUAUCCUCUCACCGAGAUCGGAAGAGCACACGU
B7: target 1 insG 3' of 3,insA 3' of 3 (mixed)
RNA 1: CACCCGUGCAAAAAUGCAGGGGUCUAAAACUGAGCGGAUAACCUCUCUAUGG
RNA 2: GGGAAUGGAUCCACAUCUACGAAUUCGUACCAUAGAGAGGUUAUCCGCUGACACCGAGAUCGGAAGAGCACACGU
B8: target 1 insG 3' of 16,insA 3' of 12 (mixed)
RNA 1: CACCCGUGCAAAAAUGCAGGGGUCUAAAACUGAGCGGAUAACCUCUCUAUGG
RNA 2: GGGAAUGGAUCCACAUCUACGAAUUCGUACCAUAGAGGAGGAUUAUCCGCUCACCGAGAUCGGAAGAGCACACGU
B9: target 1 insU 3' of 1,insU 3' of 1 (mixed)
RNA 1: CACCCGUGCAAAAAUGCAGGGGUCUAAAACUGAGCGGAUAACCUCUCUAUGG
RNA 2: GGGAAUGGAUCCACAUCUACGAAUUCGUACCAUAGAGAGGUUAUCCGCUCAUUCCGAGAUCGGAAGAGCACACGU
B10: target 1 insA 3' of 15,insA 3' of 15 (mixed)
RNA 1: CACCCGUGCAAAAAUGCAGGGGUCUAAAACUGAGCGGAUAACCUCUCUAUGG
RNA 2: GGGAAUGGAUCCACAUCUACGAAUUCGUACCAUAGAGAAAGGUUAUCCGCUCACCGAGAUCGGAAGAGCACACGU
B11: target 1 complement block 9-11 (mixed)
RNA 1: CACCCGUGCAAAAAUGCAGGGGUCUAAAACUGAGCGGAUAACCUCUCUAUGG
RNA 2: GGGAAUGGAUCCACAUCUACGAAUUCGUACCAUAGAGAGGAAUUCCGCUCACCGAGAUCGGAAGAGCACACGU
B12: target 1 A1C,A16C (mixed)
RNA 1: CACCCGUGCAAAAAUGCAGGGGUCUAAAACUGAGCGGAUAACCUCUCUAUGG
RNA 2: GGGAAUGGAUCCACAUCUACGAAUUCGUACCAUAGCGAGGUUAUCCGCUCCCCGAGAUCGGAAGAGCACACGU
B13: target 1 insG 3' of 20,insC 3' of 20 (mixed)
RNA 1: CACCCGUGCAAAAAUGCAGGGGUCUAAAACUGAGCGGAUAACCUCUCUAUGG
RNA 2: GGGAAUGGAUCCACAUCUACGAAUUCGUACCAGCUAGAGAGGUUAUCCGCUCACCGAGAUCGGAAGAGCACACGU
B14: target 1 insC 3' of 14,insC 3' of 8 (mixed)
RNA 1: CACCCGUGCAAAAAUGCAGGGGUCUAAAACUGAGCGGAUAACCUCUCUAUGG
RNA 2: GGGAAUGGAUCCACAUCUACGAAUUCGUACCAUAGAGACGGUUAUCCCGCUCACCGAGAUCGGAAGAGCACACGU
B15: target 1 C7U,U8C (mixed)
RNA 1: CACCCGUGCAAAAAUGCAGGGGUCUAAAACUGAGCGGAUAACCUCUCUAUGG
RNA 2: GGGAAUGGAUCCACAUCUACGAAUUCGUACCAUAGAGAGGUUACUCGCUCACCGAGAUCGGAAGAGCACACGU
B16: target 1 A1G,U19A (mixed)
RNA 1: CACCCGUGCAAAAAUGCAGGGGUCUAAAACUGAGCGGAUAACCUCUCUAUGG
RNA 2: GGGAAUGGAUCCACAUCUACGAAUUCGUACCAAAGAGAGGUUAUCCGCUCGCCGAGAUCGGAAGAGCACACGU
B17: target 1 insG 3' of 19,insA 3' of 12 (mixed)
RNA 1: CACCCGUGCAAAAAUGCAGGGGUCUAAAACUGAGCGGAUAACCUCUCUAUGG
RNA 2: GGGAAUGGAUCCACAUCUACGAAUUCGUACCAUGAGAGAGGAUUAUCCGCUCACCGAGAUCGGAAGAGCACACGU
B18: target 1 U8C,G15U (mixed)
RNA 1: CACCCGUGCAAAAAUGCAGGGGUCUAAAACUGAGCGGAUAACCUCUCUAUGG
RNA 2: GGGAAUGGAUCCACAUCUACGAAUUCGUACCAUAGAUAGGUUACCCGCUCACCGAGAUCGGAAGAGCACACGU
B19: target 1 U3A,A20C (mixed)
RNA 1: CACCCGUGCAAAAAUGCAGGGGUCUAAAACUGAGCGGAUAACCUCUCUAUGG
RNA 2: GGGAAUGGAUCCACAUCUACGAAUUCGUACCCUAGAGAGGUUAUCCGCACACCGAGAUCGGAAGAGCACACGU
B20: target 1 insC 3' of 22,insC 3' of 11 (mixed)
RNA 1: CACCCGUGCAAAAAUGCAGGGGUCUAAAACUGAGCGGAUAACCUCUCUAUGG
RNA 2: GGGAAUGGAUCCACAUCUACGAAUUCGUACCCAUAGAGAGGUCUAUCCGCUCACCGAGAUCGGAAGAGCACACGU
B21: target 1 insC 3' of 19,insA 3' of 6 (mixed)
RNA 1: CACCCGUGCAAAAAUGCAGGGGUCUAAAACUGAGCGGAUAACCUCUCUAUGG
RNA 2: GGGAAUGGAUCCACAUCUACGAAUUCGUACCAUCAGAGAGGUUAUCCAGCUCACCGAGAUCGGAAGAGCACACGU
B22: target 1 insU 3' of 14,insG 3' of 4 (mixed)
RNA 1: CACCCGUGCAAAAAUGCAGGGGUCUAAAACUGAGCGGAUAACCUCUCUAUGG
RNA 2: GGGAAUGGAUCCACAUCUACGAAUUCGUACCAUAGAGAUGGUUAUCCGCGUCACCGAGAUCGGAAGAGCACACGU
B23: target 1 insC 3' of 18,insC 3' of 13 (mixed)
RNA 1: CACCCGUGCAAAAAUGCAGGGGUCUAAAACUGAGCGGAUAACCUCUCUAUGG
RNA 2: GGGAAUGGAUCCACAUCUACGAAUUCGUACCAUACGAGAGCGUUAUCCGCUCACCGAGAUCGGAAGAGCACACGU
B24: target 1 insC 3' of 20,insC 3' of 17 (mixed)
RNA 1: CACCCGUGCAAAAAUGCAGGGGUCUAAAACUGAGCGGAUAACCUCUCUAUGG
RNA 2: GGGAAUGGAUCCACAUCUACGAAUUCGUACCACUAGCAGAGGUUAUCCGCUCACCGAGAUCGGAAGAGCACACGU

What follows are binders tested against T1, EsCas13d, nuclease-dead (assay: crRNA (strand 1, pre-loaded); Mg2+; 40 mM Tris-HCl pH 7.5, 150 mM NaCl, 6 mM MgCl2, 1 mM DTT, 0.1% Tween-20, 0.2 mg/ml BSA; 25 C; 10 min per concentration, then washed). Details: tags: His6-TwinStrep-SUMO cleaved; N-terminal SNAP kept (SNAP-Surface 488); label: 3' end held by stalled T7 RNA polymerase.
Binder B1 has a Kd of 12.3 ± 0.33 nM. With B2 the Kd was 13.9 ± 0.5 nM. For B3, the Kd was 23.2 ± 1.2 nM. Work on B4 yielded a Kd of 41 ± 5 nM. Binder B5 has a Kd of 28.1 ± 2.2 nM. With B6 the Kd was 41 ± 7 nM. For B7, the Kd was 6.1 ± 0.4 nM. Binder B8 has a Kd of 45 ± 9 nM. B9 gave a Kd of 11.3 ± 0.9 nM. B10 was tested, and the Kd was 6.1 ± 0.5 nM. In the case of B11, the Kd is reported as 22.9 ± 1.5 nM. For B12, the Kd was 42 ± 9 nM. Binder B13 has a Kd of 50 ± 7 nM. With B14 the Kd was 48 ± 7 nM. For B15, the Kd was 8.7 ± 0.5 nM. B16 gave a Kd of 29 ± 4 nM. For B17, the Kd was roughly 80 nM. In the case of B18, the Kd is reported as 34.6 ± 2.5 nM. B19 gave a Kd of 26.3 ± 1.6 nM. B20 was tested, and the Kd was 50 ± 6 nM. For B21, the Kd was 38.2 ± 2.2 nM. B22 was tested, and the Kd was 31.8 ± 2.8 nM. B23 was tested, and the Kd was 49 ± 6 nM. Binder B24 has a Kd of 4.9 ± 0.6 nM.
